# Data: doi:10.1101/2021.03.31.438001
# Biological target: Pr17 (OAD22177.1), secreted protein of Candidatus Thiomargarita nelsonii (Candidatus Thiomargarita nelsonii)
# Assay: non-reducing SDS-PAGE
substance,measurement,value
"Pr17 (OAD22177.1), secreted protein of Candidatus Thiomargarita nelsonii (natural protein)",stoichiometry N,2
